# According to patent publication US20170247434A1 (DEUTSCHES KREBSFORSCHUNGSZENTRUM, published 2017):
# T1: Norovirus GII.10 Vietnam026 virus-like particles (VLPs) (Norovirus GII.10 Vietnam026)
# T1 chain: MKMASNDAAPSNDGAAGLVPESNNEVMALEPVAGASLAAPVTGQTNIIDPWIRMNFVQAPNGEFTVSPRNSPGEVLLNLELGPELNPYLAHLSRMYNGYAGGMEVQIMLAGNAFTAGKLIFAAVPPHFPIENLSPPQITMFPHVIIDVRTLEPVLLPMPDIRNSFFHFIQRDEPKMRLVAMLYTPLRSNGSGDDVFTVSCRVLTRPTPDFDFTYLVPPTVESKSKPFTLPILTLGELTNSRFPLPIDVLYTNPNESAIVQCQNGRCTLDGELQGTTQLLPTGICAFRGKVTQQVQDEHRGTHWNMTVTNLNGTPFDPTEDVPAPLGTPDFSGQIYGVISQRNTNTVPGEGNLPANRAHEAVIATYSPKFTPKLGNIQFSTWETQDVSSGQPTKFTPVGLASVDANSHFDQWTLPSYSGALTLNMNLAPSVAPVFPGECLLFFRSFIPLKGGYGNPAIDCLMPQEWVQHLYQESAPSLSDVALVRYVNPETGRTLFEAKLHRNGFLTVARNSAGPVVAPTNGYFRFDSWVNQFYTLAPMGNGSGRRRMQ
# T2: Norovirus GII.4 NSW-2012 virus-like particles (VLPs) (Norovirus GII.4 NSW-2012, UniProt P54635 1-538)
# T2 chain: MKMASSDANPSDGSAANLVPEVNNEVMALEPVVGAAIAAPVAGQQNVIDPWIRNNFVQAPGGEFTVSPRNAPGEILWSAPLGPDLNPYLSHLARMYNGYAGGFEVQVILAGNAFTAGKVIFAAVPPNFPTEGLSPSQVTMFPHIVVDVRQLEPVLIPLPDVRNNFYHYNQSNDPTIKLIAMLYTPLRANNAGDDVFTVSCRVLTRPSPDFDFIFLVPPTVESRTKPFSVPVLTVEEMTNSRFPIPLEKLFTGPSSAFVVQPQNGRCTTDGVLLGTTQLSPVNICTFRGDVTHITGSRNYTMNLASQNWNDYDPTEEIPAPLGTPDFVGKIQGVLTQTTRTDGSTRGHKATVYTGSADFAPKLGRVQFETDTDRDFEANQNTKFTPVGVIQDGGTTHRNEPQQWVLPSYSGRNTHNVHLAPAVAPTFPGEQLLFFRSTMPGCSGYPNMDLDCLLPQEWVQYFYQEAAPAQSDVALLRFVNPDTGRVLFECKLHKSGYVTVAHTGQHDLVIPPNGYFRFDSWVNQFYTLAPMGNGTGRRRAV
# T3: Norovirus GI.1 Norwalk virus virus-like particles (VLPs) (Norovirus GI.1 Norwalk virus, UniProt Q83884 1-530)
# T3 construct: also called GI.1 VLPs; the member of genogroup I included in this study
# T3 sequence: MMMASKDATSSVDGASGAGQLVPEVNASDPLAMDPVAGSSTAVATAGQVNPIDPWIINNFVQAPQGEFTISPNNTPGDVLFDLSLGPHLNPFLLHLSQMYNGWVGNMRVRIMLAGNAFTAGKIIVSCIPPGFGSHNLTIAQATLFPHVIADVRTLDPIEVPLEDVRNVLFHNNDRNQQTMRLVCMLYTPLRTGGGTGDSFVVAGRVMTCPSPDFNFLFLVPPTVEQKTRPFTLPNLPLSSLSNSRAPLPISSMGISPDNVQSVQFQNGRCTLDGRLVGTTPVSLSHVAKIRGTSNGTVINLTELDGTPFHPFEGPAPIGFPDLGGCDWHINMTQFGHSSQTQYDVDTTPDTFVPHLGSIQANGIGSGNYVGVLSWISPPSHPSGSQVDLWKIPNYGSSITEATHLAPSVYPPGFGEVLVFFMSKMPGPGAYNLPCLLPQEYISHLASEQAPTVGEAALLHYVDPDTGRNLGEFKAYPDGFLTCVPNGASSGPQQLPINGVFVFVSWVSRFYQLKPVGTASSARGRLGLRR
# Key:
# [1] = biological target: T1, Norovirus GII.10 Vietnam026 virus-like …
# [2] = biological target: T2, Norovirus GII.4 NSW-2012 virus-like …
# [3] = biological target: T3, Norovirus GI.1 Norwalk virus virus-like …; assay: direct ELISA; plates coated with VLPs; His-tagged nanobody serially diluted from ˜10 µM; anti-His HRP
# [4] = biological target: T2, Norovirus GII.4 NSW-2012 virus-like …; assay: direct ELISA; plates coated with 2 µg/ml VLPs; His-tagged nanobody serially diluted from ˜10 µM; anti-His HRP
# [5] = biological target: T4, Norovirus GII.12 Hiro virus-like particles (VLPs) (Norovirus GII.12 Hiro); assay: as above
# T4 construct: also called GII.12 VLPs
# [6] = biological target: T5, P domain of norovirus GII.10 (Vietnam026) (Norovirus GII.10 Vietnam026); assay: direct ELISA; plates coated with 7 µg/ml GII.10 P domain; His-tagged nanobody serially diluted from ˜10 µM; anti-His HRP
# T5 construct: domain: P domain; also called GII.10 P domain; GII.10 P domains
# [7] = biological target: T1, Norovirus GII.10 Vietnam026 virus-like …; assay: direct ELISA; plates coated with 2 µg/ml VLPs; His-tagged nanobody serially diluted from ˜10 µM; anti-His HRP; detection limit OD 0.15
binder,measurement,setting,value
"Nano-85 (VHH, also called the Nanobody; single-domain antibody (VHH) of the invention) VHH: DVQLVESGGGLVQPGGSLRLSCAASGSIFSIYAMGWYRQAPGKQRELVASISSGGGTNYADSVKGRFTISGDNAKNTVYLQMNSLKPEDTAVYYCKREDYSAYAPPSGSRGRGTQVTVSS",IC50,[1],< 10 µg/mL
same,IC50,[2],< 10 µg/mL
same,dilution at which VLPs were detected,[3],4000 fold dilution
same,dilution at which VLPs were detected,[4],32000 fold dilution
same,dilution at which VLPs were detected,[5],32000 fold dilution
same,dilution at which P domains were detected,[6],17800 fold dilution
same,dilution at which VLPs were detected,[7],64000 fold dilution
